The values that follow come from patent US20230406951A1 (Pfizer, published 2023).

As usually defined, the EC50 is the concentration needed to bring the measured effect to its halfway point. Usually koff stands for the rate constant with which the complex falls apart. A word on the kon: it is the rate constant with which the complex forms.

Assay [1] addresses T1, human TNFR2 (human, UniProt P20333 23-461).
T1 sequence: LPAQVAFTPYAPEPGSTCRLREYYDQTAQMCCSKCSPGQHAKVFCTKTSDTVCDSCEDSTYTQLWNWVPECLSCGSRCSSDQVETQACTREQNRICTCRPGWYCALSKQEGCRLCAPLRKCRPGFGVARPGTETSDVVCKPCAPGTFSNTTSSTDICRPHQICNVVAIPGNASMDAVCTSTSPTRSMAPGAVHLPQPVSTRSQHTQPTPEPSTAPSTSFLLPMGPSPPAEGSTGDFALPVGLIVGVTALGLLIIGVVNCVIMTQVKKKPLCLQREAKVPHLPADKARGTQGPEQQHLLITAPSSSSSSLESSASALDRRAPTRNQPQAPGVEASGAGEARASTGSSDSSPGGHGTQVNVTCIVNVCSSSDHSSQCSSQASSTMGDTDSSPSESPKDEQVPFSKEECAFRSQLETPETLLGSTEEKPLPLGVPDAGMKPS
Description: cell-based or functional assay.

The target in assay [2] is T2, cynomolgus monkey TNFR2 (cynomolgus monkey, UniProt P20333 23-461 (human entry)).
T2 chain: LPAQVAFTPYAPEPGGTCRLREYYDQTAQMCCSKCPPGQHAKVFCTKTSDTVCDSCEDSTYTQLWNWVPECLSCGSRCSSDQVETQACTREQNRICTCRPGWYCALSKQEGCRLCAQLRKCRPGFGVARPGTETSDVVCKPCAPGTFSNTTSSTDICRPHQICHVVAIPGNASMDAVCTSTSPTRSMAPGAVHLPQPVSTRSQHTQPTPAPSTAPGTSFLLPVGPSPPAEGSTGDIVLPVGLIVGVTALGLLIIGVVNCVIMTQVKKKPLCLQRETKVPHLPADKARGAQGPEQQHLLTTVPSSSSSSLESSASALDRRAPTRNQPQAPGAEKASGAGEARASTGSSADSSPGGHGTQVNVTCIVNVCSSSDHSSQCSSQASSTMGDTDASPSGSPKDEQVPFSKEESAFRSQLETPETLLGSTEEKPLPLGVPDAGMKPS
Description: cell-based or functional assay.

Assay [3] deals with T1, human TNFR2. Description: binding to human TNFR2 CHO cells.
The target in assay [4] is T2, cynomolgus monkey TNFR2. Kind of assay: binding to CHO cells over-expressing cyno TNFR2.
The target in assay [5] is T1, human TNFR2. Description: cell-based or functional assay. The source holds these as a separate data set.
Assay [6] addresses T2, cynomolgus monkey TNFR2. Kind of assay: binding to cyno TNFR2 CHO cells (repeats Table 1).
Assay [7] deals with T1, human TNFR2. Kind of assay: binding to human TNFR2 CHO cells. This is another data set of the same source.
Assay [8] addresses T1, human TNFR2. Kind of assay: cell-based or functional assay. The source holds these as a separate data set.
For assay [9], the target named is T2, cynomolgus monkey TNFR2. Description: cell-based or functional assay.
Assay [10] addresses T1, human TNFR2. Kind of assay: cell-based or functional assay. The source holds these as a separate data set.
Assay [11] has as its target T3, biotinylated human TNFR2 (human, UniProt P20333 23-257, biotinylated).
T3 construct: Soluble biotinylated protein captured on a streptavidin chip for SPR; also called HuTNFR2
T3 sequence: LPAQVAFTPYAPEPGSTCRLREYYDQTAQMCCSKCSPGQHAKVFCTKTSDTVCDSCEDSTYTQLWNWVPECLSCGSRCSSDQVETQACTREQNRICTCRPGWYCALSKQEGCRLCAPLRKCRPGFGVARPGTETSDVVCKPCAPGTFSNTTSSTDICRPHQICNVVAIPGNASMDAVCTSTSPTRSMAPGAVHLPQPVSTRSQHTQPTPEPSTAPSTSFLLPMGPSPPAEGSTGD
Kind of assay: SPR (BIAcore), biotinylated TNFR2 captured on streptavidin chip, antibody as analyte (apparent affinity). The protocol:
(§1) Increased avidity was confirmed by Surface Plasmon Resonance (SPR) using a BIAcore. Briefly, biotinylated human- or cyno-TNFR2 was captured on the surface of a streptavidin chip for 60 seconds at a flow rate of […]. […] The dissociation phase was then initiated with running buffer (HBS-EP+) injected for 600 seconds at […]. Data were analyzed using the Biacore Evaluation Software.
(In general: In SPR one partner is held on a chip, and binding of the other changes the refractive index at the surface.)

Assay [12] deals with T4, biotinylated cyno TNFR2 (cynomolgus monkey, UniProt P20333 23-257 (human entry), limits assumed, biotinylated).
T4 construct: Soluble biotinylated protein captured on a streptavidin chip for SPR; also called CyTNFR2
T4 chain: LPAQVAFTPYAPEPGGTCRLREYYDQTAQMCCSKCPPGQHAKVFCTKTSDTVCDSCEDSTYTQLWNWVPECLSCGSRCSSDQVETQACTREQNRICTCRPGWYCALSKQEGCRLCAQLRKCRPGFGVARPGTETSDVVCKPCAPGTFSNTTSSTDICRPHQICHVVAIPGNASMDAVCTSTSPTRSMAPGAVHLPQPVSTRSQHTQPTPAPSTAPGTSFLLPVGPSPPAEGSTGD
The assay is described as above. The protocol:
as §1

Assay [13] concerns the target T1, human TNFR2. Kind of assay: binding to human TNFR2 CHO cells (repeats Table 1).
Assay [14] addresses T1, human TNFR2. Description: binding to CHO cells over-expressing human TNFR2.

B1: GBT-TNFR2-854 (parental) (antibody, human IgG2, kappa, V domains shown)
VH: QVQLKESGPGLVAPSQSLSITCTVSGFSFPSSGVDWVRQSPGKGLEWLGVTWGVGSTHYNSALKSRLSISKDNSKSQVFLKMNSLQTEDTAIYYCASGEWDEGFVYWGQGTLVTVSA
VL: DIVMTQSQKFMSTTVGDRVSITCKASQNVGTAVAWYQQKPGQSPKLLIYSASNRYTGVPDRFTGSGSGTDFTLTISNMQSEDLADYFCQQYSSYPLTFGGGTKLEIKR
notes: Chimeric mouse V / human IgG2 effector-null, kappa; same hybridoma clone as IgG1 825
For B1, in assay [1], the “EC50 (HuPBMC)” value was 1.4 nM. The “Jurkat EC50” value in [1] stood at 1.74 µg/mL. The “EC50 (CyPBMC)” value in assay [2] is 15 nM. Also, the EC50 was 1.13 nM in assay [3]; 0.13 µg/mL in assay [4]; 0.13 µg/mL in assay [6]; 1.13 nM in assay [7]; 0.106 µg/mL in assay [13]; 0.106 µg/mL in [14]. Besides, the “EC50 Jurkat” value in assay [5] came to 0.526 µg/mL. The “EC50 HuPBMC (ICAM-1 up-regulation)” value in assay [8] was found to be 1.4 µg/mL. In addition, in [9], the “EC50 CyPBMC (CD25+/Ki67+ of CD4+ cells)” value came to 27.2 µg/mL. Besides, the “Jurkat (ng/ml), EC50 in NF-KB-GFP reporter assay” value in [10] stood at 711 ng/mL. Besides, the Kd was 0.11 nM in [11] and 0.89 nM in assay [12]. Moreover, the koff turned out to be 0.00125 s⁻¹ in [11] and 0.00996 s⁻¹ in assay [12]. Further, the values for the kon in assay [11] and in [12] were 1.13e+07 M⁻¹ s⁻¹ and 1.12e+07 M⁻¹ s⁻¹, respectively.
